Laboratory results from patent US20160311911A1, “METHODS FOR TREATING ALLERGIC AIRWAY INFLAMMATION” (priority 2015, published 2016).

Key:
Format in all cases: cell-based
Conditions in all cases: 100 μg/mL for 18 hours
TCM^Hi cells = experiment: CXCL8 levels in cell supernatants, TCM^Hi cells
Text: (§1) Three HEK 293 cell lines, TCM^Null (TLR4^Null, CD14^Null, MD2^Null), TLR4^Hi (TLR4^Hi, CD14^Null, MD2^Null) and TCM^hi (TLR4^Hi, CD14^Hi, MD2^Hi; InvivoGen, San Diego, Calif.), were used. In some experiments hTERT immortalized normal human bronchial epithelial cells (HBECs) were used, as previously described (17).
(§2) Measurement of CXCL8 levels in cell supernatants. TCM^Null, TLR4^Hi, TCM^Hi, TLR4^Hi-ST, or TLR4^Hi-MD2 cells were stimulated with RWPE, Bermuda grass, rye grass, pigweed, mountain cedar, cat dander, LPS, or Amb a 1 at 100 μg/mL for 18 hours. In some experiments HBECs, HBECs transfected with siRNA against MD2, or sham-transfected HBECs were starved for 24 hours and stimulated with RWPE, Bermuda grass, rye grass, timothy grass, pigweed, Russian thistle, cottonwood, walnut, and cat dander allergenic extracts. Cell supernatants were assayed for CXCL8.

TCM^Null cells = experiment: CXCL8 levels in cell supernatants, TCM^Null cells
Text: as §1, §2

TLR4^Hi cells = experiment: CXCL8 levels in cell supernatants, TLR4^Hi cells
Text: as §1, §2

B1: Amb a 1: major allergen in RWPE, a single protein (protein)
chain: AEDLQEILPVNETRRLTTSGAYNIIDGCWRGKADWAENRKALADCAQGFGKGTVGGKDGDIYTVTSELDDDVANPKEGTLRFGAAQNRPLWIIFERDMVIRLDKEMVVNSDKTIDGRGAKVEIINAGFTLNGVKNVIIHNINMHDVKVNPGGLIKSNDGPAAPRAGSDGDAISISGSSQIWIDHCSLSKSVDGLVDAKLGTTRLTVSNSLFTQHQFVLLFGAGDENIEDRGMLATVAFNTFTDNVDQRMPRCRHGFFQVVNNNYDKWGSYAIGGSASPTILSQGNRFCAPDERSKKNVLGRHGEAAAESMKWNWRTNKDVLENGAIFVASGVDPVLTPEQSAGMIPAEPGESALSLTSSAGVLSCQPGAPC
With B1 the “CXCL8 secretion from TCM^Hi cells” value (TCM^Hi cells) was “induced CXCL8 secretion”, the “CXCL8 secretion from TCM^Null cells” value (TCM^Null cells) was “only in TCM^Hi cells” and the “CXCL8 secretion from TLR4^Hi cells” value (TLR4^Hi cells) was “only in TCM^Hi cells”.
